Experimental data reported in publication PMC314469, “Protein Interaction Networks by Proteome Peptide Scanning” (PLoS Biology, 2004).

T1: Rvs167 SH3 (RV167_YEAST), P39743
T1 chain: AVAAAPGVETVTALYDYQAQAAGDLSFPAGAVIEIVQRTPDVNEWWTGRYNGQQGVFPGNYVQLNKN

T2: Boi2 SH3 (BOI2_YEAST), P39969
T2 chain: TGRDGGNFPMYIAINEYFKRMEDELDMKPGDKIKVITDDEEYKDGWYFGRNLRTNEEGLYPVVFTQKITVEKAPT

T3: Yhr016c SH3 (YSC84_YEAST), P32793
T3 chain: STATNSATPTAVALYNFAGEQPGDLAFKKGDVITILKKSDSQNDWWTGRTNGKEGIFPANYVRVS

T4: Boi1 SH3 (BOI1_YEAST), P38041
T4 chain: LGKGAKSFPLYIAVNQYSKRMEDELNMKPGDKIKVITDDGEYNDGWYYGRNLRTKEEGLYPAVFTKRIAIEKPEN

T5: Yfr024 SH3 (LSB3_YEAST), P43603
T5 chain: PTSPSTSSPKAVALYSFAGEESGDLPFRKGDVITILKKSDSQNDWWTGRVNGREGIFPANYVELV


Target: T1, Rvs167 SH3 (RV167_YEAST), P39743
Assay: SPOT array

Binder | normalised SPOT signal, Boehringer light units (BLU); mean over the file's lines of this peptide
ITSPPLPPRADSIE [YMR192W 122-135] | 31300
KELPEFPIKKYHKR [YMR266W 741-754] | 29.9
KERPKPPNKGDVGR [YOR233W 333-346] | 10.8
ISTPEVPKKKIKTG [YIL010W 28-41] | 0
KDYPLSPPKLTFTP [YMR022W 62-75] | 25.5
KALPKEPKKLLPNS [YIR010W 422-435] | 44.4
KGAPFFPNKTFRKL [YPR144C 138-151] | 83.7
IVNPFIPRRPYSNV [YDR409W 859-872] | 650
ITLPRRPAKKIQLG [YBR122C 41-54] | 13700
KFHPPEPYKGKGIY [YHR147C 187-200] | 53.2
KFIPNKPYRQFNTW [YGR019W 339-352] | 51.7
KHAPFIPVKPALEK [YPR095C 158-171] | 21.7
IYTPYIPFRNSRTW [YLR240W 75-88] | 474
ISTPPPPPKMAIPA [YFR019W 390-403] | 26.6
KDHPYDPEKDSVLK [YGR020C 97-110] | 21.7
ISRPVQPFKVGSIG [YPR185W 368-381] | 22.7
KDAPIEPPKYMGMG [YOR346W 673-686] | 39.9
KIMPPTPAKKVEFI [YAL024C 312-325] | 178
KISPSAPSKDSFTK [YAR002W 350-363] | 79.2

Target: T2, Boi2 SH3 (BOI2_YEAST), P39969
Assay: SPOT array

Binder | normalised SPOT signal, Boehringer light units (BLU); mean over the file's lines of this peptide
ITSPPLPPRADSIE [YMR192W 122-135] | 35.5
KELPEFPIKKYHKR [YMR266W 741-754] | 22
KERPKPPNKGDVGR [YOR233W 333-346] | 23.8
ISTPEVPKKKIKTG [YIL010W 28-41] | 23.9
KDYPLSPPKLTFTP [YMR022W 62-75] | 33.9
KALPKEPKKLLPNS [YIR010W 422-435] | 63.5
KGAPFFPNKTFRKL [YPR144C 138-151] | 64.9
IVNPFIPRRPYSNV [YDR409W 859-872] | 142
ITLPRRPAKKIQLG [YBR122C 41-54] | 106
KFHPPEPYKGKGIY [YHR147C 187-200] | 38.2
KFIPNKPYRQFNTW [YGR019W 339-352] | 55.9
KHAPFIPVKPALEK [YPR095C 158-171] | 27.4
IYTPYIPFRNSRTW [YLR240W 75-88] | 1450
ISTPPPPPKMAIPA [YFR019W 390-403] | 34.4
KDHPYDPEKDSVLK [YGR020C 97-110] | 3.7
ISRPVQPFKVGSIG [YPR185W 368-381] | 79.1
KDAPIEPPKYMGMG [YOR346W 673-686] | 74.7
KIMPPTPAKKVEFI [YAL024C 312-325] | 180
KISPSAPSKDSFTK [YAR002W 350-363] | 1.3

Target: T3, Yhr016c SH3 (YSC84_YEAST), P32793
Assay: SPOT array

Binder | normalised SPOT signal, Boehringer light units (BLU); mean over the file's lines of this peptide
ITSPPLPPRADSIE [YMR192W 122-135] | 93200
KELPEFPIKKYHKR [YMR266W 741-754] | 6.2
KERPKPPNKGDVGR [YOR233W 333-346] | 60.1
ISTPEVPKKKIKTG [YIL010W 28-41] | 226
KDYPLSPPKLTFTP [YMR022W 62-75] | 10.6
KALPKEPKKLLPNS [YIR010W 422-435] | 2810
KGAPFFPNKTFRKL [YPR144C 138-151] | 792
IVNPFIPRRPYSNV [YDR409W 859-872] | 1650
ITLPRRPAKKIQLG [YBR122C 41-54] | 36800
KFHPPEPYKGKGIY [YHR147C 187-200] | 114
KFIPNKPYRQFNTW [YGR019W 339-352] | 417
KHAPFIPVKPALEK [YPR095C 158-171] | 65.2
IYTPYIPFRNSRTW [YLR240W 75-88] | 683
ISTPPPPPKMAIPA [YFR019W 390-403] | 189
KDHPYDPEKDSVLK [YGR020C 97-110] | 0
ISRPVQPFKVGSIG [YPR185W 368-381] | 185
KDAPIEPPKYMGMG [YOR346W 673-686] | 99.2
KIMPPTPAKKVEFI [YAL024C 312-325] | 682
KISPSAPSKDSFTK [YAR002W 350-363] | 92.4

Target: T4, Boi1 SH3 (BOI1_YEAST), P38041
Assay: SPOT array

Binder | normalised SPOT signal, Boehringer light units (BLU); mean over the file's lines of this peptide
ITSPPLPPRADSIE [YMR192W 122-135] | 181
KELPEFPIKKYHKR [YMR266W 741-754] | 119
KERPKPPNKGDVGR [YOR233W 333-346] | 168
ISTPEVPKKKIKTG [YIL010W 28-41] | 275
KDYPLSPPKLTFTP [YMR022W 62-75] | 73
KALPKEPKKLLPNS [YIR010W 422-435] | 208
KGAPFFPNKTFRKL [YPR144C 138-151] | 142
IVNPFIPRRPYSNV [YDR409W 859-872] | 1120
ITLPRRPAKKIQLG [YBR122C 41-54] | 150
KFHPPEPYKGKGIY [YHR147C 187-200] | 96.1
KFIPNKPYRQFNTW [YGR019W 339-352] | 30.9
KHAPFIPVKPALEK [YPR095C 158-171] | 92
IYTPYIPFRNSRTW [YLR240W 75-88] | 5520
ISTPPPPPKMAIPA [YFR019W 390-403] | 110
KDHPYDPEKDSVLK [YGR020C 97-110] | 51.3
ISRPVQPFKVGSIG [YPR185W 368-381] | 60.8
KDAPIEPPKYMGMG [YOR346W 673-686] | 119
KIMPPTPAKKVEFI [YAL024C 312-325] | 32
KISPSAPSKDSFTK [YAR002W 350-363] | 160

Target: T5, Yfr024 SH3 (LSB3_YEAST), P43603
Assay: SPOT array

Binder | normalised SPOT signal, Boehringer light units (BLU); mean over the file's lines of this peptide
ITSPPLPPRADSIE [YMR192W 122-135] | 39300
KELPEFPIKKYHKR [YMR266W 741-754] | 1070
KERPKPPNKGDVGR [YOR233W 333-346] | 326
ISTPEVPKKKIKTG [YIL010W 28-41] | 4970
KDYPLSPPKLTFTP [YMR022W 62-75] | 16
KALPKEPKKLLPNS [YIR010W 422-435] | 284
KGAPFFPNKTFRKL [YPR144C 138-151] | 995
IVNPFIPRRPYSNV [YDR409W 859-872] | 7710
ITLPRRPAKKIQLG [YBR122C 41-54] | 48600
KFHPPEPYKGKGIY [YHR147C 187-200] | 45.7
KFIPNKPYRQFNTW [YGR019W 339-352] | 1220
KHAPFIPVKPALEK [YPR095C 158-171] | 907
IYTPYIPFRNSRTW [YLR240W 75-88] | 3280
ISTPPPPPKMAIPA [YFR019W 390-403] | 335
KDHPYDPEKDSVLK [YGR020C 97-110] | 0
ISRPVQPFKVGSIG [YPR185W 368-381] | 1120
KDAPIEPPKYMGMG [YOR346W 673-686] | 43.8
KIMPPTPAKKVEFI [YAL024C 312-325] | 3000
KISPSAPSKDSFTK [YAR002W 350-363] | 178
